Common to all, as to assay: SEC-MALS
Background: SEC sorts molecules by how far they enter the pores of the column.

In assay [1] the target is HCoV-229E S 2P trimer (S ectodomain, residues 17-1113) (HCoV-229E) (UniProt P15423).
Assay [2] deals with HCoV-NL63 S 2P trimer (S ectodomain, residues 16-1291) (HCoV-NL63) (UniProt Q6Q1S2).
For assay [3], the target named is HCoV-OC43 S 2P trimer (S ectodomain, residues 15-1263) (HCoV-OC43).

As usually defined, the stoichiometry N is the number of molecules, sites or subunits per partner or assembly.

Regarding “HCoV-229E S 2P trimer (S ectodomain, residues 17-1113) (from UniProt P15423 17-1113) (natural protein)”, the stoichiometry N in assay [1] is 3.
For the substance “HCoV-NL63 S 2P trimer (S ectodomain, residues 16-1291) (from UniProt Q6Q1S2 16-1291) (natural protein)”, the stoichiometry N in assay [2] was 3.
In assay [3], “HCoV-OC43 S 2P trimer (S ectodomain, residues 15-1263) (natural protein)” registered a stoichiometry N of 3.
